The text below walks through data of publication PMC12084551.

In one test the target is microtubules (MTs) polymerized from porcine brain tubulin (pig (porcine brains)) (UniProt Q2XVP4). In words: co-sedimentation; GAS2 proteins at different concentrations with Taxol-stabilized MTs in BRB80 with 1 mM GTP, room temperature, 20 min; 186,000 × g, 10 min, 25 °C; SDS-PAGE, one site-specific binding fit.
Regarding “GAS2-GAR domain (residues 198–314) (from UniProt P11862 198-314) (domain or fragment)”, the Kd stood at 0.69 µM. In other words, the sub-micromolar range.
The same measure, in the same setting: to “GAS2-GAR R242E (from UniProt P11862 198-314) (domain or fragment)” belongs 5 µM.
On the same count and under the same terms, the result for “GAS2-GAR R252E (from UniProt P11862 198-314) (domain or fragment)” reads 47 µM; that for “GAS2-GAR K266E (from UniProt P11862 198-314) (domain or fragment)”, 10.6 µM; that for “GAS2-GAR G255A (from UniProt P11862 198-314) (domain or fragment)”, 2.69 µM.
Same read-out and setting: the result for “GAS2-GAR W257E (from UniProt P11862 198-314) (domain or fragment)” reads 27 µM.
Turning to “GAS2-GAR G255E (from UniProt P11862 198-314) (domain or fragment)”, the dissociation constant Kd stood at 9.6 µM.

Another test addresses full-length GAS2 (GAS2-FL (1–314)) (mouse) (UniProt P11862). In words: SEC; Superdex 75 HR 10/300; 30 mM Tris-HCl pH 8.0, 300 mM KCl, 100 μM ZnCl2, 0.1% β-ME; molecular weight from a calibration with BSA, carbonic anhydrase and cytochrome c.
“full-length GAS2 (GAS2-FL (1–314)) (from UniProt P11862 1-314) (natural protein)” returned a stoichiometry N of 2.
